Test results from IntAct's records for PubMed 29892012.

B1: Ligand of Numb protein X 2 (Homo sapiens), Q8N448 (parent)
chain: MGTTSDEMVSVEQTSSSSLNPLCFECGQQHWTRENHLYNYQNEVDDDLVCHICLQPLLQPLDTPCGHTFCYKCLRNFLQEKDFCPLDRKRLHFKLCKKSSILVHKLLDKLLVLCPFSSVCKDVMQRCDLEAHLKNRCPGASHRRVALERRKTSRTQAEIENENGPTLLDPAGTLSPEADCLGTGAVPVERHLTSASLSTWSEEPGLDNPAFEESAGADTTQQPLSLPEGEITTIEIHRSNPYIQLGISIVGGNETPLINIVIQEVYRDGVIARDGRLLAGDQILQVNNYNISNVSHNYARAVLSQPCNTLHLTVLRERRFGNRAHNHSDSNSPREEIFQVALHKRDSGEQLGIKLVRRTDEPGVFILDLLEGGLAAQDGRLSSNDRVLAINGHDLKYGTPELAAQIIQASGERVNLTIARPGKPQPGNTIREAGNHSSSSQHHTPPPYYSRPSSHKDLTQCVTCQEKHITVKKEPHESLGMTVAGGRGSKSGELPIFVTSVPPHGCLARDGRIKRGDVLLNINGIDLTNLSHSEAVAMLKASAASPAVALKALEVQIVEEATQNAEEQPSTFSENEYDASWSPSWVMWLGLPSTLHSCHDIVLRRSYLGSWGFSIVGGYEENHTNQPFFIKTIVLGTPAYYDGRLKCGDMIVAVNGLSTVGMSHSALVPMLKEQRNKVTLTVICWPGSLV
partner: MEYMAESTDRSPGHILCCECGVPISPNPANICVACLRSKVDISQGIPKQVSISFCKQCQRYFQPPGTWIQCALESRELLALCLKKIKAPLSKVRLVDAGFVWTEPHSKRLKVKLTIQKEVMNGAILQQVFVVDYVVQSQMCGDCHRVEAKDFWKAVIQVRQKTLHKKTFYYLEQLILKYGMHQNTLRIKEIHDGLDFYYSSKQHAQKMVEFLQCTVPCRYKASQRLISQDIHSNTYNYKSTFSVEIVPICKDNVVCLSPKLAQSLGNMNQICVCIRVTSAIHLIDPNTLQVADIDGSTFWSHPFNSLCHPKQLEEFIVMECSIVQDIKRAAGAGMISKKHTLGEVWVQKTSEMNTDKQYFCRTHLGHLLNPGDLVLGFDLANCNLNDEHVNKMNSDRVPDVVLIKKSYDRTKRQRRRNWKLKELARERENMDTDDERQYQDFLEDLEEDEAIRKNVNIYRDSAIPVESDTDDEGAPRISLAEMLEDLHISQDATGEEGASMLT
B2: Cell division cycle-associated 7-like protein (Homo sapiens), Q96GN5 (parent)
chain: MELATRYQIPKEVADIFNAPSDDEEFVGFRDDVPMETLSSEESCDSFDSLESGKQQDVRFHSKYFTEELRRIFIEDTDSETEDFAGFTQSDLNGKTNPEVMVVESDLSDDGKASLVSEEEEDEEEDKATPRRSRSRRSSIGLRVAFQFPTKKLANKPDKNSSSEQLFSSARLQNEKKTILERKKDCRQVIQREDSTSESEDDSRDESQESSDALLKRTMNIKENKAMLAQLLAELNSMPDFFPVRTPTSASRKKTVRRAFSEGQITRRMNPTRSARPPEKFALENFTVSAAKFAEEFYSFRRRKTIGGKCREYRRRHRISSFRPVEDITEEDLENVAITVRDKIYDKVLGNTCHQCRQKTIDTKTVCRNQGCCGVRGQFCGPCLRNRYGEDVRSALLDPDWVCPPCRGICNCSYCRKRDGRCATGILIHLAKFYGYDNVKEYLESLQKELVEDN
partner: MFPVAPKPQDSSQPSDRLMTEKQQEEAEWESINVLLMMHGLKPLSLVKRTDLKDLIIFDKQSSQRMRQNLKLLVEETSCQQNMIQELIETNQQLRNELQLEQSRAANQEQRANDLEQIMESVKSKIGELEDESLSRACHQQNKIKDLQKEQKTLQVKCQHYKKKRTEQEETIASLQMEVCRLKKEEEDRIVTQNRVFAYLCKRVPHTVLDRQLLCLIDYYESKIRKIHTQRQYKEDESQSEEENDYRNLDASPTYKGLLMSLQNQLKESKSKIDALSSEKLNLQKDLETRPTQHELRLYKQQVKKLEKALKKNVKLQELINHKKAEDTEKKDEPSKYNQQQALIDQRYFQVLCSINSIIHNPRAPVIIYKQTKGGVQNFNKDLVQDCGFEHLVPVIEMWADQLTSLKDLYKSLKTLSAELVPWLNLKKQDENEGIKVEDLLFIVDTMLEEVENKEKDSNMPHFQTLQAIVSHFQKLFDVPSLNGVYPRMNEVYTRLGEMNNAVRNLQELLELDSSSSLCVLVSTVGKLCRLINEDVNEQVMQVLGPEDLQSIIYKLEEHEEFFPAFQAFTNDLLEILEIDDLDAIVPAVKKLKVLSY
B3: Cell division cycle-associated 7-like protein (Homo sapiens), Q96GN5 (parent)
chain: B2 chain
partner: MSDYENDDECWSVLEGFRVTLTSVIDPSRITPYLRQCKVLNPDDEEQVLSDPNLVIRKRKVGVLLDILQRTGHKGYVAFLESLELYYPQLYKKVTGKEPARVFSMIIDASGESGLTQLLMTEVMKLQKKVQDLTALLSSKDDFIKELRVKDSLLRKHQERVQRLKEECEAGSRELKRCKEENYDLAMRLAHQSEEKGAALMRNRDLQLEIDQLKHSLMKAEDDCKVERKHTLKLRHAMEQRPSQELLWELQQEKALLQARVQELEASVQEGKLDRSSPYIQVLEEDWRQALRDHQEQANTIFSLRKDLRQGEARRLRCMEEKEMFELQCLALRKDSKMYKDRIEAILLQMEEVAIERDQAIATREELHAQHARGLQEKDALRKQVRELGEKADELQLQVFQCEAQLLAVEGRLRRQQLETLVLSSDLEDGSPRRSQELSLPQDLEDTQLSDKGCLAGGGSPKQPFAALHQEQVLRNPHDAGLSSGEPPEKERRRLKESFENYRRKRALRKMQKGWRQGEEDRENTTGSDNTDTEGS
B4: Zyxin (Homo sapiens), Q15942 (parent)
chain: MAAPRPSPAISVSVSAPAFYAPQKKFGPVVAPKPKVNPFRPGDSEPPPAPGAQRAQMGRVGEIPPPPPEDFPLPPPPLAGDGDDAEGALGGAFPPPPPPIEESFPPAPLEEEIFPSPPPPPEEEGGPEAPIPPPPQPREKVSSIDLEIDSLSSLLDDMTKNDPFKARVSSGYVPPPVATPFSSKSSTKPAAGGTAPLPPWKSPSSSQPLPQVPAPAQSQTQFHVQPQPQPKPQVQLHVQSQTQPVSLANTQPRGPPASSPAPAPKFSPVTPKFTPVASKFSPGAPGGSGSQPNQKLGHPEALSAGTGSPQPPSFTYAQQREKPRVQEKQHPVPPPAQNQNQVRSPGAPGPLTLKEVEELEQLTQQLMQDMEHPQRQNVAVNELCGRCHQPLARAQPAVRALGQLFHIACFTCHQCAQQLQGQQFYSLEGAPYCEGCYTDTLEKCNTCGEPITDRMLRATGKAYHPHCFTCVVCARPLEGTSFIVDQANRPHCVPDYHKQYAPRCSVCSEPIMPEPGRDETVRVVALDKNFHMKCYKCEDCGKPLSIEADDNGCFPLDGHVLCRKCHTARAQT
B5: Genetic suppressor element 1 (Homo sapiens), Q14687 (parent)
chain: MKGMSHEPKSPSLGMLSTATRTTATVNPLTPSPLNGALVPSGSPATSSALSAQAAPSSSFAAALRKLAKQAEEPRGSSLSSESSPVSSPATNHSSPASTPKRVPMGPIIVPPGGHSVPSTPPVVTIAPTKTVNGVWRSESRQDAGSRSSSGGRERLIVEPPLPQEKAGGPAIPSHLLSTPYPFGLSPSSVVQDSRFPPLNLQRPVHHVVPPSTVTEDYLRSFRPYHTTDDLRMSSLPPLGLDPATAAAYYHPSYLAPHPFPHPAFRMDDSYCLSALRSPFYPIPTPGSLPPLHPSAMHLHLSGVRYPPELSHSSLAALHSERMSGLSAERLQMDEELRREREREREREREREADREREKEREREREKEREQEKEREREKERERELERQREQRAREKELLAAKALEPSFLPVAELHGLRGHATEERGKPSEQLTPTRAEKLKDAGLQAPKPVQHPLHPVPTPHHTVPSLISNHGIFSLPSSSAATALLIQRTNEEEKWLARQRRLRQEKEDRQSQVSEFRQQVLEQHLDMGRPPVPAEAEHRPESTTRPGPNRHEPGGRDPPQHFGGPPPLISPKPQLHAAPTALWNPVSLMDNTLETRRAESHSLHSHPAAFEPSRQAAVPLVKVERVFCPEKAEEGPRKREPAPLDKYQPPPPPPREGGSLEHQPFLPGPGPFLAELEKSTQTILGQQRASLPQAATFGELSGPLKPGSPYRPPVPRAPDPAYIYDEFLQQRRRLVSKLDLEERRRREAQEKGYYYDLDDSYDESDEEEVRAHLRCVAEQPPLKLDTSSEKLEFLQLFGLTTQQQKEELVAQKRRKRRRMLRERSPSPPTIQSKRQTPSPRLALSTRYSPDEMNNSPNFEEKKKFLTIFNLTHISAEKRKDKERLVEMLRAMKQKALSAAVADSLTNSPRDSPAVSLSEPATQQASLDVEKPVGVAASLSDIPKAAEPGKLEQVRPQELSRVQELAPASGEKARLSEAPGGKKSLSMLHYIRGAAPKDIPVPLSHSTNGKSKPWEPFVAEEFAHQFHESVLQSTQKALQKHKGSVAVLSAEQNHKVDTSVHYNIPELQSSSRAPPPQHNGQQEPPTARKGPPTQELDRDSEEEEEEDDEDGEDEEEVPKRKWQGIEAVFEAYQEHIEEQNLERQVLQTQCRRLEARHYSLSLTAEQLSHSVAELRSQKQKMVSERERLQAELDHLRKCLALPAMHWPRGYLKGYPR
partner: B2 partner

Variants of: B1
Conditions: with nmd3_human NMD3, Q96D46

Row | effect of a mutation on the interaction | Variant
1 | with no effect | P669A

Variants of: B2
Conditions: with cep70_human CEP70, Q8NHQ1

Row | effect of a mutation on the interaction | Variant
2 | with no effect | R268H

Variants of: B3
Conditions: with card9_human CARD9, Q9H257

Row | effect of a mutation on the interaction | Variant
3 | with no effect | R268H

Variants of: B4
Conditions: with pf21a_human PHF21A

Row | effect of a mutation on the interaction | Variant
4 | with no effect | R167G

Variants of: B5
Conditions: with cep70_human CEP70, Q8NHQ1

Row | effect of a mutation on the interaction | Variant
5 | with no effect | R503Q

Variants of: B5
Conditions: with cep70_human CEP70, Q8NHQ1
Remark: another data set of the same source

Row | effect of a mutation on the interaction | Variant
6 | with no effect | E368K
